# Source: paper PMC7826288, “Dynamics of TRF1 organizing a single human telomere” (Nucleic Acids Research, 2020)
# Tests used:
# TRF1 [1] = target: T1, TRF1 (human, UniProt P54274); assay: single-molecule magnetic tweezers; conditions: delta-delta G of fork opening with vs without 10 nM TRF1 (61 vs 50 kBT); 20 mM HEPES pH 7.5, 100 mM NaCl, 1 mM EDTA, 0.0063% Tween-20; EMSA 30 min on ice, 5% PAGE in 1x TBE at 4 C; magnetic tweezers at 23 C
# TRF1 [2] = target: T1, TRF1; assay: EMSA; dimer concentration; Hill fit; 10 nM DNA, n=3; 20 mM HEPES pH 7.5, 100 mM NaCl, 1 mM EDTA, 0.0063% Tween-20; EMSA 30 min on ice, 5% PAGE in 1x TBE at 4 C; magnetic tweezers at 23 C; conditions: protein: recombinant; tags: trx tag (modified pET32a, Ni-NTA) removed with 3C protease; chain copies: 2; label: FAM on strand 2 (printed as FAM-CTAACCC..., 5'); blunt
# T1 sequence (P54274 3-439): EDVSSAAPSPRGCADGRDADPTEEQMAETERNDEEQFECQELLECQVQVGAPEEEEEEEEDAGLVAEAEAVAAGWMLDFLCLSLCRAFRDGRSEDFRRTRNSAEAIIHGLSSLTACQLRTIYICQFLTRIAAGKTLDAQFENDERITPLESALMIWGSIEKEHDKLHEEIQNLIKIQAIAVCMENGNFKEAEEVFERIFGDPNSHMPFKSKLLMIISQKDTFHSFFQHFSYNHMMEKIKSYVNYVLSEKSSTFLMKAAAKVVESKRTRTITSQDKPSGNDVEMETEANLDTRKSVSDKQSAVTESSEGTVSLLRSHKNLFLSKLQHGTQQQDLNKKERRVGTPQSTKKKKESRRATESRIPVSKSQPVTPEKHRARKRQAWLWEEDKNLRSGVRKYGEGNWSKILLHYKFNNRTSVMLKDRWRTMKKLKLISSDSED
molecule,measurement,setting,value
short telomeric hairpin (13 TTAGGG repeats),binding signal,TRF1 [1],11 kBT
telomeric dsDNA (two TTAGGG sites) (dsDNA) DNA 1: GTTAGGGTTAGGGTTAG DNA 2: CTAACCCTAACCCTAAC,Kd,TRF1 [2],17.5 ± 0.7 nM
